Reference: article PMC9163039

Molecular target: mRuby2-Tau (human Tau full length) (human) (UniProt P10636)
Test: FRET or BRET; FLIM-FRET (clover donor lifetime) in living SH-SY5Y cells after hyperosmotic stress (sucrose); only pixels belonging to BAG2 condensates fitted

Chain of UniProt P10636 (P10636 2-758): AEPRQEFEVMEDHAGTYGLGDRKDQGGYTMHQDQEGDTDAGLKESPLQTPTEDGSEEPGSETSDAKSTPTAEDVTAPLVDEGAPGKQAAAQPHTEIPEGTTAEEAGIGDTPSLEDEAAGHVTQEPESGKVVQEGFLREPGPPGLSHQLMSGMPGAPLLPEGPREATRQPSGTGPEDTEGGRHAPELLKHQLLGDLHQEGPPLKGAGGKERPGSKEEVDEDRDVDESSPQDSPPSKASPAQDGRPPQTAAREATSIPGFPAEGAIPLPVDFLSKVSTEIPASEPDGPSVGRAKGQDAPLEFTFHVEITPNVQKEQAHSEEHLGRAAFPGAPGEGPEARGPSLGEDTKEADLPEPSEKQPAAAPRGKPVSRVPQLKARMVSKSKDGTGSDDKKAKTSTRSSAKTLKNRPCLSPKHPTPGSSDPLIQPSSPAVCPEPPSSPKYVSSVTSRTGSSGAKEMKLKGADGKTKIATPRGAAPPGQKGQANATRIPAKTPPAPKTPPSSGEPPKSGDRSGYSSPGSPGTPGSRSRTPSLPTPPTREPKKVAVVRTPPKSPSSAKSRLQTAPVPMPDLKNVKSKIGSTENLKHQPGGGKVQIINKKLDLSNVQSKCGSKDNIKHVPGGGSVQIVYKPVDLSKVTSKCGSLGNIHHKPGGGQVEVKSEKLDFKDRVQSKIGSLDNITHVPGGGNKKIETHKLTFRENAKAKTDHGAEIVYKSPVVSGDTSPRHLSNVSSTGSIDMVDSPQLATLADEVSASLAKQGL

fluorescence lifetime of the donor (FLIM-FRET), pixels of BAG2 condensates after stress: 2.8 ns
Substance: mClover2-BAG2 (Bcl2-associated athanogene 2, full length) (from UniProt O95816 1-211) (natural protein)
